These results are taken from US20250084169A1 (published 2025).

Test [1] concerns the target T1, CD20 Lipoparticles (Homo sapiens (Human), UniProt P11836 1-297).
T1 sequence: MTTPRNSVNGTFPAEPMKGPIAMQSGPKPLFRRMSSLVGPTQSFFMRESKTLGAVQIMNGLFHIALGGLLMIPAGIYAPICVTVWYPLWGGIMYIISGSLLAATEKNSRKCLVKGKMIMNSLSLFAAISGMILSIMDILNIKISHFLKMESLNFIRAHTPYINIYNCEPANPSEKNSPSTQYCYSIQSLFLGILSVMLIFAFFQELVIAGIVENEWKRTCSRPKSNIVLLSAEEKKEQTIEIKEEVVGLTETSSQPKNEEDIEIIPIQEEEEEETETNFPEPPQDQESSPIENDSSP

Test [2] deals with T2, recombinant human Fc gamma RIIb/c (CD32b/c) (human, UniProt P31994 46-217).
T2 sequence (looked up): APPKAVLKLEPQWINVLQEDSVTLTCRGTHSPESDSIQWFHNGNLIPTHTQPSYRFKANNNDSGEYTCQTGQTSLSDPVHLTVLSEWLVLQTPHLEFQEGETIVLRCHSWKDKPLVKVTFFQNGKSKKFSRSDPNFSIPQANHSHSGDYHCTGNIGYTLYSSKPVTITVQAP

The target of test [3] is T3, recombinant human Fc gamma RIIa (CD32a) 131H (human, UniProt P12318 36-218).
T3 sequence (looked up): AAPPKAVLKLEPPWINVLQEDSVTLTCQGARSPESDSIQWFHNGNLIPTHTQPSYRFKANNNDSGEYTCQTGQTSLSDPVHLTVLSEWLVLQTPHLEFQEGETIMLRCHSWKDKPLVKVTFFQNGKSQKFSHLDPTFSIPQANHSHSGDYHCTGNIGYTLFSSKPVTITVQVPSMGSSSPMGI

The target in test [4] is recombinant human Fc gamma RIIIa (CD16a) 158V (human, UniProt P08637 17-208).
For test [5], the target named is recombinant human Fc gamma RI (CD64) (human, UniProt P12314 16-288).
Test [6] concerns the target recombinant human Fc gamma RIIIa (CD16a) 158F (human, UniProt P08637 17-208).
The target of test [7] is T4, recombinant human Fc gamma RIIa (CD32a) 131R (human, UniProt P12318 36-218).
T4 sequence (looked up): T3 sequence (looked up) with H132R

Test [8] deals with recombinant human Fc gamma RIIIb (CD16b) (human, UniProt O75015 17-200).

Numbering of substitutions follows the chain as printed.

Chain of recombinant human Fc gamma RIIIb (CD16b) (O75015 17-200 limits assumed): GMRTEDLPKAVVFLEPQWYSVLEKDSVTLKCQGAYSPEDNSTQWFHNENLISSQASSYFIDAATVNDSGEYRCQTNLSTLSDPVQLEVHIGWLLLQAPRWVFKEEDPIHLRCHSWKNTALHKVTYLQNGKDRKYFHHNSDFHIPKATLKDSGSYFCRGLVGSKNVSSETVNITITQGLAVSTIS
Chain of recombinant human Fc gamma RIIIa (CD16a) 158V (P08637 17-208 F176V limits assumed): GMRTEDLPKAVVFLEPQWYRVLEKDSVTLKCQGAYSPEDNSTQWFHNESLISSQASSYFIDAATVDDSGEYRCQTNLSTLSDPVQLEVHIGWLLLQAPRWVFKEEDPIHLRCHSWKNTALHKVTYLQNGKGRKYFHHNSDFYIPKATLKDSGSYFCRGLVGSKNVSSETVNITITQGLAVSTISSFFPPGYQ
Chain of recombinant human Fc gamma RIIIa (CD16a) 158F (P08637 17-208 limits assumed): as the sequence (P08637 17-208 F176V limits assumed) above, with V160F counted along it
Chain of recombinant human Fc gamma RI (CD64) (P12314 16-288 limits assumed): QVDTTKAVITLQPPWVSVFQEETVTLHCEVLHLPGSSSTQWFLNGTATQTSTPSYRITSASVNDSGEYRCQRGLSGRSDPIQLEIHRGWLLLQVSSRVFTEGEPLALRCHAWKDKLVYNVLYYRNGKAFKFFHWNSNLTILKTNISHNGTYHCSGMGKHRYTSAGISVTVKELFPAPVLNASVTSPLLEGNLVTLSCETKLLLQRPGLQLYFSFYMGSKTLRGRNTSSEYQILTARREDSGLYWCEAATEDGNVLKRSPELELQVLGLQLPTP

B1: Rc66SIDE-P28-Rc66SIDE (antibody, human IgG1, kappa)
light: QIVLSQSPAILSASPGEKVTMTCRASSSVSYIHWFQQKPGSSPKPWIYATSNLASGVPVRFSGSGSGTSYSLTISRVEAEDAATYYCQQWTSNPPTFGGGTKLEIKRTVAAPSVFIFPPSDEQLKSGTASVVCLLNNFYPREAKVQWKVDNALQSGNSQESVTEQDSKDSTYSLSSTLTLSKADYEKHKVYACEVTHQGLSSPVTKSFNRGEC
heavy: QVQLQQPGAELVKPGASVKMSCKASGYTFTSYNMHWVKQTPGRGLEWIGAIYPGNGDTSYNQKFKGKATLTADKSSSTAYMQLSSLTSEDSAVYYCARSTYYGGDWYFNVWGAGTTVTVSAASTKGPSVFPLAPSSKSTSGGTAALGCLVKDYFPEPVTVSWNSGALTSGVHTFPAVLQSSGLYSLSSVVTVPSSSLGTQTYICNVNHKPSNTKVDKKAEPKSCDKTHTCPPCPAPELLGGPDVFLFPPKPKDTLMISRTPEVTCVVVDVSHEDPEVKFNWYVDGVEVHNAKTKPREEQYNSTYRVVSVLTVLHQDWLNGKEYKCKVSNKALPAPEEKTISKAKGQPREPQVYVLPPSRDELTKNQVSLLCLVKGFYPSDIAVEWESNGQPENNYLTWPPVLDSDGSFFLYSKLTVDKSRWQQGNVFSCSVMHEALHNHYTQKSLSLSPGK
chain: CPPCPAPELLGGPDVFLFPPKPKDTLMISRTPEVTCVVVDVSHEDPEVKFNWYVDGVEVHNAKTKPREEQYNSTYRVVSVLTVLHQDWLNGKEYKCKVSNKALPAPEEKTISKAKGQPREPQVYVYPPSRDELTKNQVSLTCLVKGFYPSDIAVEWESNGQPENNYKTTPPVLDSDGSFALVSKLTVDKSRWQQGNVFSCSVMHEALHNHYTQKSLSLSPGK
As usually defined, the Kd is the concentration at which binding is half-saturated. For B1, the Kd is under 0.001 nM in test [1]; 7.28 nM in test [2]; 5.42 nM in test [3]; 4.98 nM in test [4]; 1.14 nM in test [5]; 6.62 nM in test [6]. Further, the values for the Kd in test [7] and in test [8] were 8.11 nM and 5.64 nM, respectively.
